Tests used:
[1] = cited from earlier work
[2] = n=847 patients treated; cited from earlier work
[3] = test system: xenograft tumors generated from OVCAR8 cells; conditions: Sheng Q, et al., Cancer Cell 2010; cited from earlier work
[4] = in vivo
Description: Patients are monitored during weekly dosing for a period of 28 days (i.e., throughout C1W1, C1W2, C1W3, and C1W4) for the occurrence of DLTs. […] The grading of AEs is based on the “common terminology criteria for adverse events” (CTCAE) version 5.0. Hematologic toxicity includes febrile neutropenia, neutropenic infection, grade 4 neutropenia >7 days, grade ≥3 thrombocytopenia for >7 days, grade ≥3 thrombocytopenia with clinically significant bleeding, grade 4 thrombocytopenia, and grade ≥3 anemia >7 days.
In the current study, 6 patients were treated in a safety run-in phase with an induction regimen consisting of a 3,000 mg loading dose followed by 2,000 mg weekly for 3 weeks. […] Enrollment continued under Induction Regimen 2 consisting of 3,000 mg once weekly for 4 weeks. The next 6 patients enrolled were treated with Induction Regimen 2.
Upon review, the next 6 patients enrolled and initiated treatment with Induction Regimen 2.
Upon review, all subsequently enrolled patients treated under Protocol Version 2.0 initiated treatment with Induction Regimen 2.

[5] = test system: EGFR, HER2, HER3, HER4, PI3K, mTOR and MAPK pathways in HBECp53-CD74-NRG1 cells; assay: Western blotting of protein phosphorylation; format: cell-based, human; conditions: serum-starved, 1 hour
Description: (§1) Whole-cell extracts were prepared after all treatments and subjected to SDS-PAGE, followed by immunoblotting for the phosphorylated (p) or total (t) proteins shown in each panel. All Western blotting studies were conducted at least two times and representative immunoblots of phosphorylated (p) and total (t) proteins are shown.
(§2) These events likely culminate in inhibition of growth and impaired survival.

[6] = test system: EGFR, HER2, HER3, HER4, PI3K, mTOR and MAPK pathways in LUAD-0061AS3 cells; assay: Western blotting of protein phosphorylation; format: cell-based, human; conditions: serum-starved, 1 hour
Description: as §1, §2

[7] = test system: NRG1-β1-stimulated MCF-7 cells; assay: NRG1-β1-stimulated growth of MCF-7 cells; format: cell-based, human
Description: MCF-7 cells were treated with the indicated concentrations of NRG1-b1 for 10 minutes, and then cell extracts were prepared and subjected to Western blotting for the indicated phosphorylated (p) or total (t) proteins (FIG. 2A). […] Data were analyzed by nonlinear regression using GraphPad Prism 8. There were four replicates of each condition and data represent the mean±SD. […] Cells were counted on the days indicated on the graph. Results represent the mean±SD of duplicates of each condition in one representative experiment. MDA-MB-175-VII (FIG. 2D) and LUAD-0061AS3 (FIG. 2E) cells were treated with the indicated concentrations of inhibitors for 48 hours, and then caspase 3/7 enzymatic activity was measured in cell homogenates. Carfilzomib (20S proteasome inhibitor) was used as a positive control for apoptosis. […]
For the time-course experiments, cells were plated at a density of 5,000 (HCC-95) or 10,000 (all others) cells per well in 12-well tissue culture plates, and then treated 24 hours later (time 0) with the respective agents. […] Cells were trypsinized and counted at the relevant time-point shown on the graphs. […] AlamarBlue is a cell permeable […] dye that is reduced when it enters the mitochondria and emits fluorescence at a different wavelength (Gloeckner H, J. Immunol. Methods 2001; 252:131-8). […]

B1: seribantumab: anti-ERBB3 (HER3) fully human monoclonal antibody; heavy and light chains SEQ ID NOs: 12 and 13 (antibody)
heavy: EVQLLESGGGLVQPGGSLRLSCAASGFTFSHYVMAWVRQAPGKGLEWVSSISSSGGWTLYADSVKGRFTISRDNSKNTLYLQMNSLRAEDTAVYYCTRGLKMATIFDYWGQGTLVTVSSASTKGPSVFPLAPCSRSTSESTAALGCLVKDYFPEPVTVSWNSGALTSGVHTFPAVLQSSGLYSLSSVVTVPSSNFGTQTYTCNVDHKPSNTKVDKTVERKCCVECPPCPAPPVAGPSVFLFPPKPKDTLMISRTPEVTCVVVDVSHEDPEVQFNWYVDGVEVHNAKTKPREEQFNSTFRVVSVLTVVHQDWLNGKEYKCKVSNKGLPAPIEKTISKTKGQPREPQVYTLPPSREEMTKNQVSLTCLVKGFYPSDIAVEWESNGQPENNYKTTPPMLDSDGSFFLYSKLTVDKSRWQQGNVFSCSVMHEALHNHYTQKSLSLSPGK
light: QSALTQPASVSGSPGQSITISCTGTSSDVGSYNVVSWYQQHPGKAPKLIIYEVSQRPSGVSNRFSGSKSGNTASLTISGLQTEDEADYYCCSYAGSSIFVIFGGGTKVTVLGQPKAAPSVTLFPPSSEELQANKATLVCLVSDFYPGAVTVAWKADGSPVKVGVETTKPSKQSNNKYAASSYLSLTPEQWKSHRSYSCRVTHEGSTVEKTVAPAECS
maximum tolerated dose ([1]; 43 advanced solid tumor patients): not reached
treatment-emergent adverse events having >20% incidence ([1]; 43 patients, all grades regardless of relationship): fatigue, nausea, diarrhea, vomiting, decreased appetite, hyperglycemia, hypokalemia, and rash
hypomagnesemia ([1]; 43 patients): Grade 1
most commonly reported adverse events ([1]; 43 patients): Grade 1 or 2 rash, nausea, diarrhea and fatigue
grade of infusion related reactions [2]: Grade 1 or 2
patients experiencing an infusion related reaction [2]: < 1%
growth of xenograft tumors [3]: block growth of xenograft tumors
TEAEs [4]: Grade 1 diarrhea, nausea, fatigue, rash and pruritis
HER3 phosphorylation [5]: completely inhibited
phosphorylation of AKT, p70S6K, and STAT3 [5]: almost completely inhibited
phosphorylation of EGFR, HER2, HER3, HER4, AKT, and STAT3 [6]: almost complete inhibition
phosphorylation of ERK1/2 [6]: less sensitive
NRG1-β1-stimulated growth, temporal study ([7]; pretreated 2 μmol/L seribantumab 1 hour, 10 ng/mL NRG1-β1, up to 10 days): prevented NRG1-β1-stimulated growth completely
growth (viability) of NRG1-β1-stimulated cells ([7]; seribantumab 0.125 μmol/L (lowest used), NRG1-β1 0-5 ng/mL, 96 hours): largely suppressed growth
